Laboratory results: patent publication US20190330349A1

Molecular target: human VISTA (V-domain Ig Suppressor of T cell Activation) (human) (UniProt Q9H7M9)
Experiment: Table 1 column 'Kd, M'; method not stated

Binder	Kd [nM]
VSTB63 (antibody, from a related filing, V domains shown) VH: QVQLQESGPGLVKPSETLSLTCAVSGFSITSDFAWNWIRQPPGKGLEWIGYITYSGFTNYNPSLESRVTISVDTSKNQFSLKLSSVTAADTAVYYCARQEYGNYVWYFDVWGQGTLVTVSS VL: DIVMTQTPLSLSVTPGQPASISCRASESVEYYGTSLLQWYLQKPGQPPQLLIYAASNVESGVPDRFSGSGSGTDFTLKISRVEAEDVGVYYCQQSRKVPWTFGQGTKLEIK	0.83
VSTB54 (antibody, from a related filing, V domains shown) VH: QVQLVQSGAEVKKPGASVKVSCKASGYNIKDTYMHWVRQAPGQGLEWMGRIDPTHGYVIYDPKFQGRVTMTRDTSTSTVYMELSSLRSEDTAVYYCARDRFDPYWFLDVWGQGTLVTVSS VL: DIVMTQTPLSLSVTPGQPASISCRASESVEYYGTSLMQWYLQKPGQSPQLLIYDAFNVESGVPDRFSGSGSGTDFTLKISRVEAEDVGVYYCQQSRKVPWTFGQGTKLEIK	0.0253
